From publication PMC2172186 (The Journal of Cell Biology, 2004)

Columns and labels:
[1] = biological target: TgMyoA (Toxoplasma gondii myosin-A, class XIV myosin) (Toxoplasma gondii (endogenous in RH strain parasites)) (UniProt O00934); assay: co-IP
[2] = biological target: TgMyoA (Toxoplasma gondii myosin-A, class XIV myosin) (Toxoplasma gondii (endogenous in RH …, UniProt O00934 1-831)); assay: co-IP

Row | Molecule | molar ratio to TgMyoA in the complex [1] | molar ratio to TgMyoA in the complex [2]
1 | TgMLC1 (Toxoplasma gondii myosin light chain-1) (natural protein) | 1.38 | –
2 | TgGAP45 (Toxoplasma gondii gliding-associated protein 45) (natural protein, UniProt Q7Z289 1-245, looked up) MGNACKKNTAKTPTRKEAEDLAEKERQEREAKEKAEAEEKARAEAEKNAADKAEAERRAAEAREREESARKEAEAEAARKAEAEAAEAERLRKEAEKKKAEEAKRKAEEEQRAAAEEAEQRAREEAERRKAEAAAAAERERQMQEALKQEEMSPREKYDKLASPEDSASETTMATQPQKVAEHSSAAVTDRSVVGYTVTPCDMAAIDETAKYLSKRCGCDLGDQHDENECPICRHIDLSDAPLLN | – | 1.31
